Data on two molecules can be found in patent publication US20190276502A1 (OXFORD UNIVERSITY INNOVATION, published 2019).

The target of assay [1] is T1, Recombinant His-tagged EapH2 protein (MAP domain of S. aureus EapH2) (Staphylococcus aureus Newman, UniProt A0A0H3K729 24-144).
T1 construct: Made in E. coli and used as the soluble His-tagged ligand; not shown: N-terminal His-tag and 3C protease site from vector pOPIN-F
T1 sequence: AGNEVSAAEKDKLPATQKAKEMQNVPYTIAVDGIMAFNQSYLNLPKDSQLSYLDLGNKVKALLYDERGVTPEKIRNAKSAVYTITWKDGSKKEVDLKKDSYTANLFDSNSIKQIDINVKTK
Briefly: plate interaction assay (EIA): untagged protein immobilised, His-tagged ligand titrated, anti-His alkaline phosphatase detection.

The target of assay [2] is T2, Recombinant Eap protein (C-terminal MAP domain and adjacent basic region of S. aureus Eap), His tag excised (Staphylococcus aureus Newman, UniProt A6QIG2 481-584).
T2 construct: The tag was removed with HRV 3C protease before coating on the plate; also called immobilized Eap; untagged Eap
T2 sequence: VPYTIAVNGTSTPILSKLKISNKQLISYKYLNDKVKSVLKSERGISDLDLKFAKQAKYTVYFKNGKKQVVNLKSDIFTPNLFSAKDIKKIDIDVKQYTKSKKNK
Briefly: plate interaction assay (EIA): untagged protein immobilised, His-tagged ligand titrated, anti-His alkaline phosphatase detection, Kd by non-linear regression.

The target of assay [3] is T3, Recombinant EapH2 protein (MAP domain of S. aureus EapH2), His tag excised (Staphylococcus aureus Newman, UniProt A0A0H3K729 24-144).
T3 construct: The N-terminal His-tag was removed with HRV 3C protease; also called immobilized EapH2; untagged EapH2
T3 sequence: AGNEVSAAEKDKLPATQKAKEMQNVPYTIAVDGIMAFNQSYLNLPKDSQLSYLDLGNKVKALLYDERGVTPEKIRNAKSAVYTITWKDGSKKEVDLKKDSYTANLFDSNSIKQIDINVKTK
The assay is described as above.

A word on the Kd: it is the free concentration of one partner at which half of the binding sites on the other are occupied at equilibrium, for simple one-to-one binding.

B1: Recombinant EapH1 protein (MAP domain of S. aureus EapH1), His tag excised (other)
chain: PSHEASADSNNGYKEMTVDGYHTVPYTISVDGITALHRTYFIFPENKNVLYQEIDSKVKNELASQRGVTTEKINNAQTATYTLTLNDGNKKVVNLKKNDDAKNSIDPSTIKQIQIVVK
notes: The N-terminal His-tag was removed with HRV 3C protease; also called immobilized EapH1; untagged EapH1
On to B1, for which the binding result in assay [1] is listed as “binds”.

B2: Recombinant His-tagged Eap protein (C-terminal MAP domain and adjacent basic region of S. aureus Eap) (other)
chain: VPYTIAVNGTSTPILSKLKISNKQLISYKYLNDKVKSVLKSERGISDLDLKFAKQAKYTVYFKNGKKQVVNLKSDIFTPNLFSAKDIKKIDIDVKQYTKSKKNK
notes: not shown: N-terminal His-tag and 3C protease site from vector pOPIN-F
In the case of B2, the Kd in assay [2] was 80 nM; in assay [3], 82 nM.
